{"source": "patent US8012929B2", "about": "“Peptides directed for diagnosis and treatment of amyloid-associated diseases” (Tel Aviv University Future Technology Development L.P., priority 2002, dated 2011)", "assay_type_in_all_cases": "physicochemical", "key": {"[1]": {"experiment": "Transmission electron microscopy of aged peptides (Example 10)", "conditions": "for fibrilar supramolecular ultrastructures by electron microscopy: peptides derived from amyloid proteins, mild conditions", "method": "Transmission Electron Microscopy—A 10 μL sample of 8 mg/ml peptide solution in 10 mM Tris buffer, pH 7.2 aged for at least one day was placed on 400-mesh copper grids (SPI supplies, West Chester Pa.) covered by carbon-stabilized Formvar film. Following 1 minute, excess fluid was removed, and the grid was then negatively stained with 2% uranyl acetate in water for another two minutes. Samples were viewed in a JEOL 1200EX electron microscope operating at 80 kV."}, "[2]": {"experiment": "Kinetic aggregation assay, turbidity at 405 nm (Example 8)", "method": "Kinetic Aggregation Assay—freshly prepared peptide stock solutions were generated by dissolving the lyophilized form of the peptides in dimethyl sulfoxide (DMSO) at a concentration of 100 mg/ml. To avoid any pre-aggregation, fresh stock solutions were prepared for each experiment. […] Turbidity data were collected at 405 nm. Buffer solution containing the same amount of DMSO as the tested samples was used as blank, which was subtracted from the results. Turbidity was measured continuously at room temperature using THERMOmax ELISA plate reader (Molecular Devices, Sunnyvale Calif.)."}, "[3]": {"experiment": "Congo Red staining and birefringence (Example 9)", "method": "Congo Red Staining and Birefringence—A 10 μL suspension of 8 mg/ml peptide solution in 10 mM Tris buffer, pH 7.2 aged for at least one day was allowed to dry overnight on a glass microscope slide. Staining was performed by the addition of a 10 μL suspension of saturated Congo Red (CR) and NaCl in 80% ethanol (v/v) solution as previously described [Puchtler (1966) Supra]. The solution was filtered via 0.45 μm filter. The slide was then dried for few hours. Birefringence was determined with a SZX-12 Stereoscope (Olympus, Hamburg, Germany) equipped with cross polarizers."}, "[4]": {"experiment": "Fourier transform infrared spectroscopy of aged peptides (Example 11)", "conditions": "Calcitonin-derived peptides", "method": "Fourier Transform Infrared Spectroscopy—Infrared spectra were recorded using a Nicolet Nexus 470 FT-IR spectrometer with a DTGS detector. Samples of aged peptide solutions, taken from turbidity assay, were suspended on a CaF2 widows (Sigma)-plate and dried by vacuum. The peptide deposits were resuspended with […] and subsequently dried to form thin films. The resuspension procedure was repeated twice to ensure maximal hydrogen to deuterium exchange. The measurements were taken using a 4 cm^−1 resolution and 2000 scans averaging. The transmittance minima values were determined by the OMNIC analysis program (Nicolet)."}, "[5]": {"conditions": "Medin-derived peptides, aged 4 days"}, "[6]": {"conditions": "Calcitonin-derived peptides, 0.02M NaCl, 0.01M Tris pH 7.2, aged 2 days"}, "[7]": {"conditions": "hIAPP peptide fragments, 8 mg/ml aged at least one day"}}, "note": "Ends that are not written are not given here."}
{"substance": "SFFSFL (also: EG modification)", "values": [{"measurement": "fibrilar supramolecular ultrastructures by electron microscopy", "setting": "[1]", "result": "filamentous structures were observed"}]}
{"substance": "LQNFTL", "values": [{"measurement": "fibrilar supramolecular ultrastructures by electron microscopy", "setting": "[1]", "result": "filamentous structures were observed"}]}
{"substance": "NH2-FGSV -COOH (H-FGSV-OH)", "values": [{"measurement": "turbidity at 405 nm", "setting": "[2]; Medin-derived peptides", "result": "gradual increase in turbidity"}, {"measurement": "Congo Red birefringence", "setting": "[3]; Medin-derived peptides", "result": "no birefringence"}, {"measurement": "structures by electron microscopy", "setting": "[1]; [5]", "result": "no fibrillar structures could be found"}]}
{"substance": "GTFQIN", "values": [{"measurement": "fibrilar supramolecular ultrastructures by electron microscopy", "setting": "[1]", "result": "filamentous structures were observed"}]}
{"substance": "RALDFA", "values": [{"measurement": "fibrilar supramolecular ultrastructures by electron microscopy", "setting": "[1]", "result": "filamentous structures were observed"}]}
{"substance": "RDFLDR", "values": [{"measurement": "fibrilar supramolecular ultrastructures by electron microscopy", "setting": "[1]", "result": "filamentous structures were observed"}]}
{"substance": "GLVFVS", "values": [{"measurement": "fibrilar supramolecular ultrastructures by electron microscopy", "setting": "[1]", "result": "filamentous structures were observed"}]}
{"substance": "ERGFF", "values": [{"measurement": "fibrilar supramolecular ultrastructures by electron microscopy", "setting": "[1]", "result": "filamentous structures were observed"}]}
{"substance": "NH2-FGSVQ -COOH (H-FGSVQ-OH)", "values": [{"measurement": "turbidity at 405 nm", "setting": "[2]; Medin-derived peptides", "result": "gradual increase in turbidity"}, {"measurement": "Congo Red birefringence", "setting": "[3]; Medin-derived peptides", "result": "no birefringence"}, {"measurement": "structures by electron microscopy", "setting": "[1]; [5]", "result": "somewhat fibrillar and ordered structure could be seen"}]}
{"substance": "LFNQTG", "values": [{"measurement": "fibrilar supramolecular ultrastructures by electron microscopy", "setting": "[1]", "result": "filamentous structures were observed"}]}
{"substance": "FENKF", "values": [{"measurement": "fibrilar supramolecular ultrastructures by electron microscopy", "setting": "[1]", "result": "filamentous structures were observed"}]}
{"substance": "NFGSVQFV [published amyloidogenic octapeptide of Medin, reference compound]", "values": [{"measurement": "turbidity at 405 nm", "setting": "[2]; Medin-derived peptides", "result": "too fast to be measured"}, {"measurement": "Congo Red birefringence", "setting": "[3]; Medin-derived peptides", "result": "significant birefringence"}, {"measurement": "structures by electron microscopy", "setting": "[1]; [5]", "result": "Fibrillar structures were clearly seen"}]}
{"substance": "H-NAGSVQ-OH", "values": [{"measurement": "turbidity at 405 nm", "setting": "[2]; Medin-derived peptides", "result": "significantly lower turbidity"}, {"measurement": "Congo Red birefringence", "setting": "[3]; Medin-derived peptides", "result": "some degree of birefringence could still be detected"}, {"measurement": "structures by electron microscopy", "setting": "[1]; [5]", "result": "no clear fibrillar structures could be detected"}]}
{"substance": "SGIFTN (also: EG modification)", "values": [{"measurement": "fibrilar supramolecular ultrastructures by electron microscopy", "setting": "[1]", "result": "filamentous structures were observed"}]}
{"substance": "NH2-NFGSV -COOH (H-NFGSV-OH)", "values": [{"measurement": "turbidity at 405 nm", "setting": "[2]; Medin-derived peptides", "result": "highest degree of aggregation within minutes of incubation"}, {"measurement": "Congo Red birefringence", "setting": "[3]; Medin-derived peptides", "result": "very low degree of birefringence"}, {"measurement": "structures by electron microscopy", "setting": "[1]; [5]", "result": "network of fibrous structures"}]}
{"substance": "NH2-DFNK -COOH (H-DFNK-OH)", "values": [{"measurement": "Congo Red birefringence", "setting": "[3]; Calcitonin-derived peptides", "result": "lower level of birefringence"}, {"measurement": "structures by electron microscopy", "setting": "[1]; [6]", "result": "also formed fibrillar structures"}, {"measurement": "secondary structure by FT-IR (amide I)", "setting": "[4]", "result": "less typical of a β-sheet structure"}]}
{"substance": "NH2-GSVQ -COOH (H-GSVQ-OH)", "values": [{"measurement": "Congo Red birefringence", "setting": "[3]; Medin-derived peptides", "result": "unexpected high level of birefringence"}, {"measurement": "structures by electron microscopy", "setting": "[1]; [5]", "result": "no fibrillar structures could be found"}]}
{"substance": "NH2-NFGSVQ -COOH (H-NFGSVQ-OH)", "values": [{"measurement": "turbidity at 405 nm", "setting": "[2]; Medin-derived peptides", "result": "gradual increase in turbidity"}, {"measurement": "Congo Red birefringence", "setting": "[3]; Medin-derived peptides", "result": "characteristic bright and strong green-gold birefringence"}, {"measurement": "structures by electron microscopy", "setting": "[1]; [5]", "result": "Fibrillar structures were clearly seen"}]}
{"substance": "SNFLN (also: EG modification)", "values": [{"measurement": "fibrilar supramolecular ultrastructures by electron microscopy", "setting": "[1]", "result": "filamentous structures were observed"}]}
{"substance": "NH2- FNKF-COOH (H-FNKF-OH)", "values": [{"measurement": "Congo Red birefringence", "setting": "[3]; Calcitonin-derived peptides", "result": "lower but significant"}, {"measurement": "structures by electron microscopy", "setting": "[1]; [6]", "result": "only amorphous aggregates could be found"}, {"measurement": "secondary structure by FT-IR (amide I)", "setting": "[4]", "result": "typical of a non-ordered structure"}]}
{"substance": "TLIFGG (also: EG modification)", "values": [{"measurement": "fibrilar supramolecular ultrastructures by electron microscopy", "setting": "[1]", "result": "filamentous structures were observed"}]}
{"substance": "NFGAILSS", "values": [{"measurement": "turbidity at 405 nm", "setting": "[2]; hIAPP 22-29 and hydrophobic analogues, up to 24 hours", "result": "significant increase in turbidity"}, {"measurement": "structures by electron microscopy", "setting": "[1]; hIAPP 22-29 and analogues, five days of incubation", "result": "well-ordered fibrils"}]}
{"substance": "FLVHS", "values": [{"measurement": "turbidity at 405 nm", "setting": "[2]; hIAPP peptide fragments, 8 mg/ml, 8% DMSO, monitored two hours", "result": "high turbidity"}, {"measurement": "Congo Red birefringence", "setting": "[3]; [7]", "result": "typical birefringence"}, {"measurement": "structures by electron microscopy", "setting": "[1]; [7]", "result": "large broad ribbon-like fibrils"}]}
{"substance": "NH2-DFN -COOH (H-Asp-Phe-Asn-OH)", "values": [{"measurement": "Congo Red birefringence", "setting": "[3]; Calcitonin-derived peptides", "result": "lower but significant"}, {"measurement": "structures by electron microscopy", "setting": "[1]; [6]", "result": "more ordered structures"}, {"measurement": "secondary structure by FT-IR (amide I)", "setting": "[4]", "result": "consistent with a mixture of β-sheet and random structures"}]}
{"substance": "SFNNG (also: EG modification)", "values": [{"measurement": "fibrilar supramolecular ultrastructures by electron microscopy", "setting": "[1]", "result": "filamentous structures were observed"}]}
{"substance": "NH2-DFNKF-COOH (H-DFNKF-OH)", "values": [{"measurement": "Congo Red birefringence", "setting": "[3]; Calcitonin-derived peptides", "result": "clear and strong"}, {"measurement": "structures by electron microscopy", "setting": "[1]; [6]", "result": "clearly seen with high frequency"}, {"measurement": "secondary structure by FT-IR (amide I)", "setting": "[4]", "result": "consistent with anti-parallel β-sheet structure"}]}
